Source: patent publication US20240067729A1 (PALLEON PHARMACEUTICALS, published 2024)

What was measured:
[1] = biological target: human PD-L1 (hPD-L1) coated on ELISA wells, Example 7 (human, UniProt Q9NZQ7 19-238, limits assumed); experiment: blocking ELISA: titrated + biotinylated hPD-1-Fc 1 ug/mL on coated hPD-L1
From the text: The plate was developed with TMB and Stop buffer and the absorbance at 450 nm was read using a SpectraMax plate reader.

[2] = biological target: T1, human PD-L1 expressed on cells (HCC827, NCI-H292, CHO-PD-L1, engineered CHO-K1) (human, UniProt Q9NZQ7 19-290); experiment: cell-based or functional assay
[3] = biological target: T2, cynomolgus PD-L1, his tagged (cPD-L1-his) (cynomolgus (Macaca fascicularis), UniProt G7PSE7 19-238); experiment: BLI (ForteBio Octet), cynomolgus PD-L1
T2 construct: also called cyPD-L1-His; Cyno PD-L1

[4] = biological target: T1, human PD-L1 expressed on cells (HCC827, …); experiment: flow cytometry on NCI-H292 cells, apparent Kd; calculated using data points up to 3.7 nM
Procedure: (§1) The ability of PD-L1 antibody sialidase conjugates to bind PD-L1 on HCC827 and NCI-H292 cells was examined next. […] After washing with staining buffer, cells were incubated with AF647 Goat anti-human IgG(H+L) in staining buffer at 4° C. for 30 min. After 2× wash with staining buffer, cells were fixed and run on FACSCelesta.

[5] = biological target: T1, human PD-L1 expressed on cells (HCC827, …); experiment: flow cytometry on HCC827 cells, apparent Kd; calculated using data points up to 3.7 nM
Procedure: as §1

[6] = biological target: T3, human PD-L1, his tagged (hPD-L1-his) (human, UniProt Q9NZQ7 19-238, limits assumed); experiment: BLI (ForteBio Octet), human PD-L1
T3 construct: also called huPD-L1-His; recombinant human PD-L1; not shown: his tag
T3 sequence (Q9NZQ7 19-238 limits assumed): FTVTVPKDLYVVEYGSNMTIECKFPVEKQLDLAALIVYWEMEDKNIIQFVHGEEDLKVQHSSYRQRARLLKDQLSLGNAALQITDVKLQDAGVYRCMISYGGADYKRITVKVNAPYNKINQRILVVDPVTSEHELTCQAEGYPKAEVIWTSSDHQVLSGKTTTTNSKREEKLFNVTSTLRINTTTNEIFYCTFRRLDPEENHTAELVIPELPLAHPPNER

T1 sequence (Q9NZQ7 19-290, change not shown): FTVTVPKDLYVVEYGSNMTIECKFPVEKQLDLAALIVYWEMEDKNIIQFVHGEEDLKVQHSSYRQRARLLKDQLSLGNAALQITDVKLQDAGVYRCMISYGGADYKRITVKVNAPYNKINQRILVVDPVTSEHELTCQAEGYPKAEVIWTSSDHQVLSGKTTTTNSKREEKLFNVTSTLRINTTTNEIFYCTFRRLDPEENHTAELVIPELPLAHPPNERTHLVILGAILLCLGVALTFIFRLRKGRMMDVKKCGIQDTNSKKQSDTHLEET
T2 sequence (G7PSE7 entry or part of it limits assumed, form in doubt): as the sequence (Q9NZQ7 19-238 limits assumed) above, with A33T, A34S, S62N, R68Q, Q82R, F173L, T185A, T192I, H215L counted along it
Chain of human PD-L1 (hPD-L1) coated on ELISA wells, Example 7 (Q9NZQ7 19-238 limits assumed): as the sequence (Q9NZQ7 19-238 limits assumed) above

B1: h769.T-1A (antibody, V domains shown)
VH: EVQLVQSGAEVKKPGATVKISCKVSGFNIKDTYMHWVQQAPGKGLEWMGLIDPANDNTIYAEKFQGRVTITADTSTDTAYMELSSLRSEDTAVYYCAREGYGGSYGEGYWGQGTLVTVSS
VL: EIVMTQSPPTLSLSPGERVTLSCRASQSVSNDLSWYQQKPGQAPRLLIYYASIRFTGIPARFSGSGSGTDFTLTISSLQPEDFAVYYCQQDYTSPWTFGQGTKVEIK
notes: bivalent
In the case of B1, the IC50 [1] is reported as 1.44 nM, the “EC50 (NFAT-luciferase fold induction)” value [2] is reported as 0.56 nM and the Kd [3] is reported as 1.53 nM. For the same binder, the koff [3] was 0.000443 s⁻¹, the kon [3] was 297000 M⁻¹ s⁻¹ and the Kd [4] was 0.0973 nM. It also gave a Kd [5] of 0.125 nM, a Kd [6] of 2.13 nM and a koff [6] of 0.000728 s⁻¹. The kon [6] was 346000 M⁻¹ s⁻¹.
